In IntAct's records for PubMed 19762560:

B1: Synphilin-1 (Homo sapiens), Q9Y6H5 (parent)
chain: MEAPEYLDLDEIDFSDDISYSVTSLKTIPELCRRCDTQNEDRSVSSSSWNCGISTLITNTQKPTGIADVYSKFRPVKRVSPLKHQPETLENNESDDQKNQKVVEYQKGGESDLGPQPQELGPGDGVGGPPGKSSEPSTSLGELEHYDLDMDEILDVPYIKSSQQLASFTKVTSEKRILGLCTTINGLSGKACSTGSSESSSSNMAPFCVLSPVKSPHLRKASAVIHDQHKLSTEETEISPPLVKCGSAYEPENQSKDFLNKTFSDPHGRKVEKTTPDCQLRAFHLQSSAAESKPEEQVSGLNRTSSQGPEERSEYLKKVKSILNIVKEGQISLLPHLAADNLDKIHDENGNNLLHIAASQGHAECLQHLTSLMGEDCLNERNTEKLTPAGLAIKNGQLECVRWMVSETEAIAELSCSKDFPSLIHYAGCYGQEKILLWLLQFMQEQGISLDEVDQDGNSAVHVASQHGYLGCIQTLVEYGANVTMQNHAGEKPSQSAERQGHTLCSRYLVVVETCMSLASQVVKLTKQLKEQTVERVTLQNQLQQFLEAQKSEGKSLPSSPSSPSSPASRKSQWKSPDADDDSVAKSKPGVQEGIQVLGSLSASSRARPKAKDEDSDKILRQLLGKEISENVCTQEKLSLEFQDAQASSRNSKKIPLEKRELKLARLRQLMQRSLSESDTDSNNSEDPKTTPVRKADRPRPQPIVESVESMDSAESLHLMIKKHTLASGGRRFPFSIKASKSLDGHSPSPTSESSEPDLESQYPGSGSIPPNQPSGDPQQPSPDSTAAQKVATSPKSALKSPSSKRRTSQNLKLRVTFEEPVVQMEQPSLELNGEKDKDKGRTLQRTSTSNESGDQLKRPFGAFRSIMETLSGNQNNNNNYQAANQLKTSTLPLTSLGRKTDAKGNPASSASKGKNKAA

Variants of: B1
Conditions: with syua_human SNCA

effect of a mutation on the interaction	Variant
decreasing interaction	K527A
decreasing interaction	V523N
decreasing interaction	K524A
decreasing interaction	A519N
